Experimental data taken from the DeepSol protein solubility set.

Test: soluble on expression in E. coli; label from the status in PepcDB or PDB records

## MSQAHTPSAPLAEVYDVAVVGGGINGVGIAADAAGRGLSVFLCEQHDLAQHTSSASSKLIHGGLRYLEHYEFRLVREALAEREVLLAKAPHIVKPLRFVLPHRPHLRPAWMIRAGLFLYDHLGKREKLPASRGLRFTGSSPLKAEIRRGFEYSDCAVDDARLVVLNAISAREHGAHVHTRTRCVSARRSKGLWHLHLERSDGSLYSIRARALVNAAGPWVARFIQDDLKQKSPYGIRLIQGSHIIVPKLYEGEHAYILQNEDRRIVFAIPYLDRFTMIGTTDREYQGDPAKVAISEEETAYLLQVVNAHFKQQLAAADILHSFAGVRPLCDDESDEPSAITRDYTLSLSAGNGEPPLLSVFGGKLTTYRKLAESALTQLQPFFANLGPAWTAKAPLPGGEQMQSVEALTEQLANRYAWLDRELALRWARTYGTRVWRLLDGVNGEADLGEHLGGGLYAREVDYLCKHEWAQDAEDILWRRSKLGLFLSPSQQVRLGQYLQSEHPHRPRVHAALEHHHHHH
  soluble on expression in E. coli: soluble

## DWVIPPISSPENEKGPFPKNLVQIKSNKDKEGKVFYSITGQGADTPPVGVFIIERETGWLKVTEPLDRERIATYTLFSHAVSSNGNAVEDPMEILITVTDQNDNKPEFTQEVFKGSVMEGALPGTSVMEVTATDADDDVNTYNAAIAYTILSQDPELPDKNMFTINRNTGVISVVTTGLDRESFPTYTLVVQAADLQGEGLSTTATAVITVTD
  soluble on expression in E. coli: soluble

## MGSDKIHHHHHHMTTASTVYHYCGAESFFSIVRNGRLWVSDARKTNDRRELEWFKDLALKHIAKSAATGDKMLSDLHLALKVRFELLEDVSDYYVCCFSEKKDSVPQWVAYADRGTGFAIGFDVNALRKKIGAALLSPSYAPVPFGVGANGWGFGPVAYAEEGVANAQIDDLMSTIVSAPFVGEDVTDSARDHIDRVCAFCKHPDFQTEHEWRIVCNTSFLKKNAGLTGTDMLPDTKWRKGGYGLTPYRETVDVLDCVKEVIVGPGNADRDSIEYVKQFLRFSGVKAEVFLSVSPYR
  soluble on expression in E. coli: not soluble

## MMNDGKQQSTFLFHDYETFGTHPALDRPAQFAAIRTDSEFNVIGEPEVFYCKPADDYLPQPGAVLITGITPQEARAKGENEAAFAARIHSLFTVPKTCILGYNNVRFDDEVTRNIFYRNFYDPYAWSWQHDNSRWDLLDVMRACYALRPEGINWPENDDGLPSFRLEHLTKANGIEHSNAHDAMADVYATIAMAKLVKTRQPRLFDYLFTHRNKHKLMALIDVPQMKPLVHVSGMFGAWRGNTSWVAPLAWHPENRNAVIMVDLAGDISPLLELDSDTLRERLYTAKTDLGDNAAVPVKLVHINKCPVLAQANTLRPEDADRLGINRQHCLDNLKILRENPQVREKVVAIFAEAEPFTPSDNVDAQLYNGFFSDADRAAMKIVLETEPRNLPALDITFVDKRIEKLLFNYRARNFPGTLDYAEQQRWLEHRRQVFTPEFLQGYADELQMLVQQYADDKEKVALLKALWQYADEIVEHHHHHH
  soluble on expression in E. coli: soluble

## LPEIPIAAPDLLGHGRSPWAAPWTIDANVSALAALLDNQGDGPVVVVGHSFGGAVAMHLAAARPDQVAALVLLDPAVALDGSRVREVVDAMLASPDYLDPAEARAEKATGAWADVDPPVLDAELDEHLVALPNGRYGWRISLPAMVCYWSELARDIVLPPVGTATTLVRAVRASPAYVSDQLLAALDKRLGADFELLDFDCGHMVPQAKPTEVAAVIRSRLGPR
  soluble on expression in E. coli: soluble

## RALEDEDMRKVFSRLSKSSTIPSDLRRTKELFILMFLLRGLPFVDLAYLRKSDLRGNVITYRRRKTGRSLSVTLTPESMLLLEKHISRDLSSPYLFPILHSIEGSQEAYREYQLALRSFNQHLELLGQWLGLESKLSSYTARHTWATTAYYCEIHPGIISEAMGHSSITVTETYLKPFRNRKIDEAN
  soluble on expression in E. coli: not soluble

## MSKFPVPLRTIGGLRPSTTAAISAANIGFTQSSRALSTGAAAKSSGLVGQVARQYPNAAAFSIKQVRLYSSGNLPKHNRVALPALSPTMELGTVVSWQKKEGDQLSEGDLLCEIETDKATMGFETPEEGYLAKILIQEGSKDVPIGKLLCIIVDNEADVAAFKDFKDDGASSGGSAPAAEKAPEPAKPAASSQPSPPAQMYQAPSVPKSAPIPHSSSGRVSASPFAKKLAAENGLDLSGVSGSGPGGRILASDLSQAPAKGATSTTTQAVSGQDYTDIPLSNMRKTIAKRLTESKSTIPHYYLTSEIQLDTLLQVREKLNGLLAKGTSGQATKISINDFIIKASALACQRVPEANSYWMDSFIRENHHVDVSVAVSTPAGLITPIIFNAHAKGLATIASEIVELAQRAREGKLQPHEFQGGTFTVSNLGMFGSVSDFTAIINPPQSCILAIGGASDKLVPDEAEGYKKIKTMKVTLSCDHRTVDGAVGAVWLRHFKEFLEKPHTMLL
  soluble on expression in E. coli: not soluble

## MKSTDQFQTHEVPWEEFIEALREEMKKQVGADIIDTVVCNLEDGFEVYTYVQGDLDFEYKEALERKYGSDAKTPNVLTIMLLASIYNTSEENIRLHADHKENPIVEVYVKQGNTL
  soluble on expression in E. coli: not soluble

## MKPATLTAELDVRSGGRYRISFVSDDGEYFEAGGTYREVVPNELLVFTWAWHSTPERESLVTISFKPDSAGTLMIFHHAQFFDEAARDNHRRGWSSFLDKLDAFVALEHHHHHH
  soluble on expression in E. coli: not soluble

## MGAIAPSSNILAKAMVDAIDFEVAKCIVELGPGTGSFTKEIMKRKKKRTTFILIEINEVFFKKLQKQYEDDASVVVIHGSAENIQRYVEELQIKGVDYVLSGLPFTSLPKEESSRILNNVMESLRENGRFITFQYSLVKKGFIEDFFPDIQLKKVWFNFPPAYVFSCKKSLEHHHHHH
  soluble on expression in E. coli: soluble

## HLEGLGASVLDFTGFAQKFGTVLSYIRLGAKPDTLHQVRIDTGGADAVIGCDMVVSSAPKASAHYRNGTKVVLNRAEMPTGDLVLHRDAQLKIDTREAAIRAVVGTENVSGFDANQTAEQLLGDAVFANVMMLGYAWQQGLVPVSRSALAQAILLNGVAVEKNRLAFAAGRALAADPARLDVESASPE
  soluble on expression in E. coli: not soluble

## AIAGELTDALLGKGALKTRFGSLLGQGDWGGVRVSQVEVRWVIFCLLHWLHVNLPVTEYLALDVLFPLAIVQKHSIL
  soluble on expression in E. coli: soluble

## MIHLARRRIVLTTPYFVPDEATLSALRIAGTSGVDVQLILSESNNQFLMAWAQEAYFEELLRAGIKIALYRPHFLHAKHLSVDDDIALFGSINLDIRSFALNAEIGMICYDSRIVTQLREVESDYLANARQLNLVEWQQRPAWRRSREGIARLADALM
  soluble on expression in E. coli: not soluble

## MGSDKIHHHHHHMSKEASFEIQLPLFAGPFDLLLFFIERDELDIYDIPISKITNDFLEYIHRLEKMNVDIASEFILVAATLMRIKAKTLLPRPDIDPQGNEIDPREELVSHLLEYKKYKSVIAEFSELEETSLKREKRGNIAKELKLLSEVSNVETELQDIDLYKLLKVFEKVIVRWKEEKTKPVHHVVQYPYSIELQKEYIINKVSRGQRISFTEIINDIPVKMAVIYNFLSILELLALQKIQLHLGEGFNNFWIAQYDGEHAAVNEYANDIE
  soluble on expression in E. coli: not soluble

## MGDVSAVSSSGNILLPQQDEVGGLSEALKKAVEKHKTEYSGDKKDRDYGDAFVMHKETALPLLLAAWRHGAPAKSEHHNGNVSGLHHNGKSELRIAEKLLKVTAEKSVGLISAEAKVDKSAALLSSKNRPLESVSGKKLSADLKAVESVSEVTDNATGISDDNIKALPGDNKAIAGEGVRKEGAPLARDVAPARMAAANTGKPEDKDHKKVKDVSQLPLQPTTIADLSQLTGGDEKMPLAAQSKPMMTIFPTADGVKGEDSSLTYRFQRWGNDYSVNIQARQAGEFSLIPSNTQVEHRLHDQWQNGNPQRWHLTRDDQQNPQQQQHRQQSGEEDDA
  soluble on expression in E. coli: not soluble

## MGHHHHHHSHMSVHKLTDLRDNSTNWKINVKILSIWNHPPNSHGEITTMILHDDKNNRVDATIPQGNYHNPFCPFLKPGTWIHISDFRVVVPQSRVRYSSFRFHIKFIWETSVHPLPELVKRDFFD
  soluble on expression in E. coli: not soluble

## MYSFELDKLKIELKTWEHDFIDKNKREPTRDDIKSLRTVRQMYKQYSTLKKKQSLQRQKVDTQESVELPAHKKDHDEVVEIGPTPQVYGKAISIFDMNLSPIKPIYMTFTNNIDVNNDNSKTISNESSPRKTILLKSSPADRTLVAEPISSVKRQLNFQMLNASSTRTPTSSPCKNRNGKLVEIKKCSPTINPPLESGKPSGYYGPNSPLKLDEENIHLNISLNSSTKRRLQIAYPSLQKTPSKDQADISTSFSPSPLIRRPLTKSLIELAREHTEIVKEFGVLQEEDIEEEEEGEEGENGYDEKNHEDDFGLEDELIRPKVVKDIFQEDDDNDDSQAREDTFIRKRPKRRKVIRRLRDNDPETETAGFERDVHKELVKLKRRKVAEFLGSTSQISDTEFEHDPEASSGVVSSEQKPTAKRKGRKKYNLVSNNFRRLKLPKKNRFSNGRWGRR
  soluble on expression in E. coli: not soluble

## MSFDANIATQYYILMTIKTFRCADPETLFKLGRVARFVNIERPALRKLKQLDLARCIEDIRVPPANRPEILKGDRAGQHSIRINDQWRVCFRWTGTDAEDVEIVDYH
  soluble on expression in E. coli: not soluble

## MAEPAQETPCFSMEKAERAFLDGNFEEALKHFFVCIRMLPVERRGVYEDQFAAALHGWIALDHNNASRAVCLYPQIKELFPETIRTKIALIRAVQGTEQSKWLLNCLPICKDSMDLATKPEDLVALRIARVNLTTIPFPQWHIRMINDVKRNEAFAKALNDTIKSRITVVFDIGSGTGILSAIAARKTNLVTALEENMCLTMISKEVLKRNGVESRVNVHAKNSTYFETCEKADIVVSETLDCCVFGEKIVETFLDAHVRFSHDRTIFIPHQATVYVRLFSCREIFDIHCQDYGGVRYRSEYVKIGESDAEQPYWCASAADYSQFELLSGSVAMHSVDFSSIANLKDSLANSNSFKIRPAKDGVAHGFSVHFTSDLTGHGDNIIDSSKSRAWDLGIIPFKEPCLVKCDKEYEGSWKLLNNRLDVYNDFYDENLQKHEDSLRYETASLDQLQKIRDDSYFKAMMGEIDPIELPFTRDISSSIPAQCVLNTVESQTPIRHLITNFCRYDGTLDQETFFRIEEFVGFRDHVQKIVPTKFRILGHLFYSDRVHFDARPDPSAHCQVDLSTVRSFNLREMRDIRLTQREDIVMASKEFVLYDFNISAEKFRQDTYITVTQDVTVQPTRPIADGVIYEFEILGIRNTKLRPVAAFLFPERVNTNPDMTVVFDLHLGEMLISLKDLP
  soluble on expression in E. coli: not soluble

## AYDIISDIHGCYDEMTALIQKLGYTIKNGVPVHEEGRVLVFAGDLTDRGPKSIEVIRFVAGAYEKGAVRYVPGNHCNKLYRYLKGNPVKVMHGLETTAAELEELSKDEKKSVSEQFMKLYETAPLYDILHNGELVVAHAGIRADDIGKYTRRVKDFVLYGDVTGETYPDGRPIRRDWAAAYNGKAWVVYGHTPVKEPRKVNRTINIDTGCVFGNQLTGFRFPEIETVSVPSSLPYDESRFRP
  soluble on expression in E. coli: not soluble

## MGSDKIHHHHHHMRISLSTGTLFTFPLGKVMRIAREAGFDGVELIINQDFQKVNCRKLIEELAEILPINSIHAPFMPLDGWGGPIDSLERCVELAAGAGIPLVNFHPPSWMGFEIGFWRWLYRVMDFQKEVGRETVIVTLENMPWVGTRFRVNPHILSNTEKLIEFIQERNLYMTFDTTHMGSGKANFINDFYHCYNSGRIRNIHFSDYGHGREHLIPGHGILPLTRFLNHLRSTDYADTLTLELSPEEFPRDERIIVESLREILQYLRRETSPA
  soluble on expression in E. coli: not soluble

## MAHHHHHHMWFGQLVIGPPGSGKSTYVAGVEHILRQINRKLVLINLDPFVENDVYKADVNISDLVDIKKVFCDLGLGPNGTLIYCMEYLLINFDWLEEKLKEHKDHYLLIDTPGQVELYTHNDALRKIVEKMTKMNCRLTSVHIVDSTLCSDNYKYVSALLLSLCSQIHLELPHVNVFSKIDLLKYFRDDLNFPLSYYVEAQNLEQLMLYARYQNESSSGSEGVNMGDDSPSGSLNDRSSCAQSAIKQAIRNDINSGRIKNVRKNYKKFSNKFLKLNEYICETVEDYNMINFALLDIQDKYSVLKLLKIIDGANGFRFSSIYSEYSLFDTYAEAIEYDCDDIQEKIVDVSDEEKEASLSGHPPHG
  soluble on expression in E. coli: not soluble
